{"source": "a protein production outcome set (Wang et al. 2014)", "test": "label from the status in PepcDB records"}
{"sequence": "MLPAYIKIHDAIKKEIDKGTWKIGQRLPSERDLADDYSVSRMTLRQSITLLVEEGILERRVGSGTYVASHRVQEKMRGTTSFTEIVNSQGRKPSSKLISFQRKLANETEIQKLNLSQSDYVVRMERVRYADKVPLVYEVASIPENLIKGFEQSEVTEHFFKTLTENGYEIGKSQQTIYARNASERVASHLEVNAGHAILALTQVSYFTDGKPFEYVHGQYVGDRFEFYLENN", "values": [{"measurement": "protein production", "value": "failed"}]}
{"sequence": "MPNNDSFYKKVLDNLYDGIYFVDEQRRITYWNKGAQMLTGYGEKEVIGRNCHDIFLHLDSNGNGICSDACPIEKTITDGRKRDEESFLHHKDGHLVPVCLRVAPIQDTDGQMVVAVEVTGDHSPRHALRQQLENLQRLALCDPLTTIANRRYVEMSLNSRLEEMRRYGWHFGILFLDVDHFKQINDTHGHDTGDRVLKMVAKTLVNSARSFDVVGRWGGEEFIAVLANISRRQLPRIADRFRHLVEQSSFRLDDRLLRVTVSVGATMSHLDDTVESLVQRADTLMYRSKQAGRNCVSIGFGEEMPETSATPSASP", "values": [{"measurement": "protein production", "value": "failed"}]}
{"sequence": "MSESVNKKITDGNYDKTLAVKCVNGTFVGKKTEGVIAYKGIPFVGQQPVGKLRWKAPVDVTPSNDVYEAYNYEKAPVQAPGDPAIENGMGEDCLYLNIWRADETVTEKKPVIVWIYGGGFEVGGTSDPQYDCHSLVKENPDVILVSLAYRVSFFGFMHLSHLSDGKDYQDAPNLGLLDQLMGLKWVHENIANFGGDPDNVTIWGESAGGASVTLLPLIKGSHQYFKRVIAQSGAPAQTRSEEQAIAITDHVMKELGCKTVADLLKVSAQEFADTWARLYGFYQVLGIRTFPERDGRCLPLNPWEAYANGAAKDITFLQGCNKDEMNTFLGSIGVDRWNAWANQRKAEKLIQLTDEEKALVESYCNDIQGESYEPTVRLFSQIMFQVPQIRLSEEQTKGGGKSYTYLFTPESSVPLIKCGHITELSALFNHPEITAFTGRAYDETFCKTMRKMWIQFAKTGNPSLTAEMSPDGKAKEWPLYDTEKKVMVLDEQNIHPAKESELKIVDWERTYFLTNYYMP", "values": [{"measurement": "protein production", "value": "failed"}]}
{"sequence": "MKPADLTNADRIALELGHAGRNAIPYLDDDRNADRPFTLNTYRPYGYTPDRPVVVVQHGVLRNGADYRDFWIPAADRHKLLIVAPTFSDEIWPGVESYNNGRAFTAAGNPRHVDGWTYALVARVLANIRAAEIADCEQVYLFGHSAGGQFVHRLMSSQPHAPFHAVTAANPGWYTLPTFEHRFPEGLDGVGLTEDHLARLLAYPMTILAGDQDIATDDPNLPSEPAALRQGPHRYARARHYYEAGRRAAAQRGLPFGWQLQVVPGIGHDGQAMSQVCASLWFDGRMPDAAELARLAGSQSA", "values": [{"measurement": "protein production", "value": "failed"}]}
{"sequence": "MSDLGAYIHAVETASSASALREAVIQLAQQNSTAAIPTLIAVLGYNNPAAAQAAVEGLIALGDAVVEPLLAQLDGYNYGARAYGVRVLGSIGHPAALQVLLAAAQSDFAPSVRRAATKALGTLRWQLIPEETVREAQLKEALAVLQRNSKAADWAVRYAVGVALDYLHQQAAARGIREAVRSLLNHLSDRDPDIVVRSRCQLALQRDSLSMHT", "values": [{"measurement": "protein production", "value": "failed"}]}
{"sequence": "RGLALCREHYLDWFVKETERAIRRHRMLLPGERVLVAVSGGKDSLALWDVLSRLGYQAVGLHIELGIGEYSKRSLEVTQAFARERGLELLVVDLKEAYGFGVPELARLSGRVACSACGLSKRYIINQVAVEEGFRVVATGHNLDDEAAVLFGNLLNPQEETLSRQGPVLPEKPGLAARVKPFYRFSEREVLSYTLLRGIRYLHEEC", "values": [{"measurement": "protein production", "value": "failed"}]}
{"sequence": "VAVINSAQDAPSEAPTEVGVKVLSSSEISVHWEHVLEKIVESYQIRYWAAHDKEEAANRVQVTSQEYSARLENLLPDTQYFIEVGACNSAGCGPPSDMIEAFTKKA", "values": [{"measurement": "protein production", "value": "not failed"}]}
{"sequence": "MMMLPEACIANILAFTSPADAFSSSEVSSVFRLAGDSDFVWEKFLPSDYKSLISQSTDHHWNISSKKEIYRCLCDSLLIDNARKLFKINKFSGKISYVLSARDISITHSDHASYWSWSNVSDSRFSESAELIITDRLEIEGKIQTRVLSANTRYGAYLIVKVTKGAYGLDLVPAETSIKSKNGQISKSATYLCCLDEKKQQMKRLFYGNREERMAMTVEAVGGDGKRREPKCRDDGWMEIELGEFETREGEDDEVNMTLTEVKGYQLKGGILIDGIEVRPKT", "values": [{"measurement": "protein production", "value": "failed"}]}
{"sequence": "MMARVEKLRELMKENNLQGFLVTSPYNLRYLTNFTGTTGLAMITLDKAFFVTDFRYTEQAAEQATGFTIVKNTGHIFDEVADLAERLQLDNLAFEETQVSFADYSLLEEILPCELVPVMGLIEELREVK", "values": [{"measurement": "protein production", "value": "not failed"}]}
{"sequence": "MRTERWWQDTSVTDHLFRQFGRFEFIQATRLLRHVPYHMDQTQWASEFQFGSSLALSFPKTEIEHLAQSDERIEMTSLVVGLTGTQGALPYTYTNKLKQSSRQQRREIQAFLGLFNHTLTVQYVDASLVHHLPVRYEVEQENHYLNILHALNGYISSHHQHNELDEYFAEFAGLMQGQNNTAHALTTMLTCIFKQKVMVKEFIREKFYLSDEQKTCLGGAQPSLLGINTFCGDTIEQIDGKIEIQIGPLKRKQYLDFLPSGRASTQLKHILATWCSPTLLVDLRLILDQDDVQPFCLDSVHQMGLGQGVFLTSQASNQDNQDTCYSLIGAVA", "values": [{"measurement": "protein production", "value": "failed"}]}
{"sequence": "MNITKAFCLSIALLGASNMQAITNSDFVIQQDNTKINNYQTNRPETSKRLFVSQAVEQQIAHIKQLLTNARLAWMFENCFPNTLDTTVHFDGKDDTFVYTGDIHAMWLRDSGAQVWPYVQLANKDAELKKMLAGVIKRQFKCINIDPYANAFNMNSEGGEWMSDLTDMKPELHERKWEIDSLCYPIRLAYHYWKTTGDASIFSDEWLTAIAKVLKTFKEQQRKEDPKGPYRFQRKTERALDTMTNDGWGNPVKPVGLIASAFRPSDDATTFQFLVPSNFFAVTSLRKAAEILNTVNKKPDLAKECTTLSNEVETALKKYAVYNHPKYGKIYAFEVDGFGNQLLMDDANVPSLIALPYLGDVKVNDPIYQNTRKFVWSEDNPYFFKGTAGEGIGGPHIGYDMIWPMSIMMKAFTSQNDAEIKTCIKMLMDTDAGTGFMHESFHKNDPKNFTRSWFAWQNTLFGELILKLVNEGKVDLLNSIQLEHHHHHH", "values": [{"measurement": "protein production", "value": "failed"}]}
{"sequence": "MDQLWANRAASAEAAITERHLKKLWGLPGTQLGVVAWPPARKYTLFGTWHYWWQAHLLDCLVDAQVRDPQPERTTRIERQLRAHRLRNNLSWVNDYYDDMAWLALAIERAGRLAGVEKPTALRKLCDQFVTAWVPEDGGGIPWRKQDQFFNAPANGPAGIFLARYDDRLRRAQQMADWIDETLIDPDTHLVFDGIKAGSLVRAQYTYCQGVVLGLEVELAVRTQDPRHAPRVRRLVAAVDKEMTTDGVIKGAGGGDGGLFNGILARYLALVATTLPGETPEDIAARDTARTIVLKSARSAWDHRQTVDGLPLFSAFWDRNAEIPTAGGKEAEFVEGAVNASSVPERDLSVQLAGWMLMEAAHSVDSVDAEDAAGDQNGAGDGEVGHDENEDEELEHHHHHH", "values": [{"measurement": "protein production", "value": "not failed"}]}
{"sequence": "MQCPIEDRLAIQDLMIAYAHAVDTVSDIDAVLDVFTEDAVFDLSGIGLTPQVGHAGIREFFTNVFANMSHHAHYLTNFAVTGYEGDTASMRAYVIGMGVGKDGRAVTVNGRYFFEVRRTEKGWKATRYTMDFLMPLSGTLDNAK", "values": [{"measurement": "protein production", "value": "not failed"}]}
{"sequence": "MDLLAMNIPVSLQSKPPLWLLAELTYRCPLQCAYCSNPLDYAAVKQELSTDEWKDVFRQARAMGSVQLGFSGGEPLLRQDLSELIKYAHELGFYTNLITSGIGLTEQKIAEFSEAGLDHIQISFQASDPALSEILSGSRKAFQQKQAMALAVKKHRYPMVLNFVIHRFNIEQIDQIIELSLELNADYVELATCQFYGWAKLNQAALLPTPEQISYAQARVQAYRQYIDQHHLKTKLLLVAPDYYQERPKKCIGGWGQIFITVSPDGTVLPCQSAKDLPLEFPTIQDQSLKTIWNEAFAFNAFRGTDWMQEPCRSCPDKDKDLGGCRCQAYMLTKNMYATDPVCSKSPVHHQIVEARLQTQCSKPDISDLKLRNPQNSKLFFKRASDADSLL", "values": [{"measurement": "protein production", "value": "failed"}]}
{"sequence": "MSEDKDMKNRNAMTIKRFVDVEEDGEHGGSGEFAELFQESIKQHRVGEVVTGKVVHISNEFVLVDIGYKSEGCIAIDEFLDEDGNLTVKVGDEVKALFERKENQKGYAVLSRRKAERLAVWDVIDEAGGEGGIIEGKITGKVKGGLTVDIGVQAFLPASQVDLRPGGNLDKYIGTTDRFKVLKLNKKRGNIVLSRRVLMEEERESSRKETLATLAEGQVREGVVKNITDYGAFVDIGGVDGLLHVTDMSWGRLGHPSEILKPGDKLNVKVLKYDQEKGKISLGLKQVTPDPWVSVEQKYNQGDRVKGKVVSLTDYGAFIALEDGVEGLVHVSEMSWTRRLRHPSEILTVGDEVETVVLGVDMGNRRISLGLKQVQVNPWTQLEEKYPVGTKLEGQIKSITDFGVFIGIEEGIDGLVHVSDISWTKRIKHPGEVFTKGQTVQAVVLNIDPENERLSLGIKQLLLDPWSEIPVKYRPGTRVHGKVTSVTDFGVFLEIEEGIEGLIHVSELSREKVASPKEFTNVGDELDAVVLSVDESEKKIALSIKSLQMAAEKAEIESYMQAQGEATSNLGELLKVGFRKNGDGNDLEHHHHHH", "values": [{"measurement": "protein production", "value": "failed"}]}
{"sequence": "MKRYQGRIIATVLAMTFIMFWNFLFYGVLGNKINWTVDLLFTLVTLISVWWLTLYIDESNQLVYKLKESEKKYKELSSETNRIMDNLQEIVFQTDRIGYITFLNQAWTTLTGYSVEESLGTMYNDYFDHEERISNHLIAQLKNKEPEGRIEVLYHRKDGSKFWGEVHYKLYYKNGQFTGSLGTLTDVTERKKAEMELFKSNQRLAMQSQKLAMAGQLAAGIAHEVRNPLTSVNGFLQLMKAEYPDRKDYFDIIFSEIKRIDSVLGELLVLAKPHQVQFKKIKINSVLQQVATLLETNAVLSHIKIEKAFQHGEEWEINGDENQIKQVFINLIKNGIEAMPDGGKITISSKAEGDCVKISIKDEGGGISQADLAKLGEPFFSTKEEGTGLGLTICLNIIGAHNGEMKIDSKLGEGSTFHILLPVDKGAASEENDIQQGCCSRATIK", "values": [{"measurement": "protein production", "value": "failed"}]}
{"sequence": "MPKRRGHGEGTVYQRPDGRWTAQITVGIDHEGKQRRLTLYGKSKKEVLEKLTQALYQQQNGGFIEPSKITVEQWLNRWLTDYAKPHLRQSTWESYETVLRLHVIPTLGSIPLKKLQPADIQRLYASKLESGLSPTRVRYIHVVLHEAMSQARESGLLLQNPTEAAKPPRHPKKKVQPLNPEQVKRFLETAKQDPLYPAFLLALGTGLRRGEILGLRWQDLDLQKGILQVRQSLIRTREGLKFEEPKTEKSRRQIPLPPSVVAALKRHKAWVNQNKLILGPDYEDHDLVFPVENGRPRDPKGFAEYFNRLLDKAGLPHIRLHDLRHTHATLLLLEGVHPKVVQERLGHSTVSITLDIYSHILPGLQEKAAERIDGLLQPKENPSPKEGTIK", "values": [{"measurement": "protein production", "value": "failed"}]}
{"sequence": "MVLLLRYRSLTINLTPLIPKSQKFHTLQSFRNPNFISIPKISASTNNPTTTTNRSISDATKFAKSVLFIPPGVEIEELTDDMVLPGSNIVIGPFAGHSQIKEVEFVKSSARARDCPKDDRPEIAILGRSNVGKSSLINCLVRKKEVALTSKKPGKTQLINHFLVNKSWYIVDLPGYGFAKVSDAAKTDWSAFTKGYFLNRDSLVCVLLLIDASVPPQKIDLDCANWLGRNNVPMTFVFTKCDKMKATKGKRPDENIKAFQQIIRENFKVHPPWILTSSVSGLGRDELLLHMSQLRNYWDQ", "values": [{"measurement": "protein production", "value": "failed"}]}
{"sequence": "MMTHYSDNTLKVAHQGFEFFTQGLATGEWQKFLDMLTEDFTFWFPMGEFHGLNVGKERAKEFFTYVSESFHTGIQISSLDRVTSNETTVVFEFRDEGLFLGKPYKNRVAVSFDVRGDKICSYREYFGSDGKSN", "values": [{"measurement": "protein production", "value": "not failed"}]}
{"sequence": "MMSGEHTLKAVRGSFIDVTRTIDNPEEIASALRFIEDGLLLIKQGKVEWFGEWENGKHQIPDTIRVRDYRGKLIVPGFVDTHIHYPQSEMVGAYGEQLLEWLNKHTFPTERRYEDLEYAREMSAFFIKQLLRNGTTTALVFGTVHPQSVDALFEAASHINMRMIAGKVMMDRNAPDYLLDTAESSYHQSKELIERWHKNGRLLYAITPRFAPTSSPEQMAMAQRLKEEYPDTWVHTHLCENKDEIAWVKSLYPDHDGYLDVYHQYGLTGKNCVFAHCVHLEEKEWDRLSETKSSIAFCPTSNLYLGSGLFNLKKAWQKKVKVGMGTDIGAGTTFNMLQTLNEAYKVLQLQGYRLSAYEAFYLATLGGAKSLGLDDLIGNFLPGKEADFVVMEPTATPLQQLRYDNSVSLVDKLFVMMTLGDDRSIYRTYVDGRLVYERN", "values": [{"measurement": "protein production", "value": "failed"}]}
